T1: CD22 on Raji细胞 (UniProt P20273 20-847, limits assumed)
T1 construct: whole, on cells; also called 天然细胞表面CD22蛋白
T1 sequence (looked up): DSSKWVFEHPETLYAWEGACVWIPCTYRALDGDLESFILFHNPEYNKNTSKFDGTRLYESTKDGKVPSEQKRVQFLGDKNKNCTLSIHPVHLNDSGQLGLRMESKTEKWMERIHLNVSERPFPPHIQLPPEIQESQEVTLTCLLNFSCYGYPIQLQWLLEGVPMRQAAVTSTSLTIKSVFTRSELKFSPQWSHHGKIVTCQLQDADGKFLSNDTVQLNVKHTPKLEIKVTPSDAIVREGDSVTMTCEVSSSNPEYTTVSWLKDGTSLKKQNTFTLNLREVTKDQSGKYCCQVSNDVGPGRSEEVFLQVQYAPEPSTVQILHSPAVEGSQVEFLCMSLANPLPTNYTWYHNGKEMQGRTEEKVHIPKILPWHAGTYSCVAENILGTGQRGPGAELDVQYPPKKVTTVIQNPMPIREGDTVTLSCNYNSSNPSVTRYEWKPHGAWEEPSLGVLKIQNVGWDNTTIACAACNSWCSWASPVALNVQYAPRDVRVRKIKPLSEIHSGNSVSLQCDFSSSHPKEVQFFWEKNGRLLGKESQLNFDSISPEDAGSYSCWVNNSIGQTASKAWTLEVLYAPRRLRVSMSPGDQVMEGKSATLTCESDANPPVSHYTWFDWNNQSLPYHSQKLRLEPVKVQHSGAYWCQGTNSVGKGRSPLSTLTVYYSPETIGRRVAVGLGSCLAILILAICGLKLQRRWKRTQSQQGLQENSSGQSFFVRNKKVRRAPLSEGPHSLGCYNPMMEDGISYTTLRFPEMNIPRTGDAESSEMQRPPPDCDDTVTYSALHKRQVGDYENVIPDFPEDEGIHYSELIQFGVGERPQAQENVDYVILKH

B1: 命名为8B5的兔重组单克隆抗体 (antibody, V domains shown)
VH: QEQLKESGGGLVTPGGSLTLTCTVSGIDLSSYAMGWVRQAPGKGLEYIGIVTYAGSAYYASWARGRFTISKTSTTVDLKITSPTTEDTATYFCARGVDNFYTLPDAFDPWGPGTLVTVS
VL: AYDMTQTPASVSAAVGGTVTINCQASQSISRFLSWYQQKPGQRPKLLIYRASTLASGVSSRFEGSGSGTQFTLTISGVECADAATYYCQQGDTYINVDNPFGGGTEVVVK
notes: Rabbit recombinant monoclonal antibody expressed in 293 cells
B2: 命名为9A3的兔重组单克隆抗体 (antibody, V domains shown)
V domain 1: QSVEESGGRLVTPGTPLTLTCTVSGIDLSSYWMNWVRQAPGKGLEWIGIIWSDDNTYYANWAKGRFTISKTSSTTVDLTITSPTTEDTATYFCARGYVGDIWGPGTLITVS
V domain 2: ALVMTQTPSSVDVAVGGTVTIRCQASQNIYSGLAWYQQKPGQPPKLLIYGASNLASGVSSRFKGSGSGTQFTLTISGVECADAATYYCQQTYTSDNVDNPFGGGTEVVVE
notes: as for B1
B3: 命名为10F9的兔重组单克隆抗体 (antibody, V domains shown)
VH: QSVEESGGRLVTPGTPLTLTCTVSGFSLNTDAMIWVRQAPGKGLEYIGIIGSSGSAFFASWAKGRFTISKTSTTVDLTIISPTTEDTATYFCARFTGYGGYGRGGMDPWGPGTLVTVSS
VL: AQVLTQTPSSVSAAVGGTVTINCQSSESVHNNNWLSWYQQKPGQPPKLLIYKASTLASGVPSRFSGSGSGTQFTLTISGVQCDDAATYYCQATYNSGGWYVAFGGGTEVVVK
notes: as for B1

Key:
CD22 on Raji细胞 = molecular target: T1, CD22 on Raji细胞; assay: flow cytometry on Raji cells, antibody at several concentrations
CD22 FC融合标签蛋白 [1] = molecular target: CD22 FC融合标签蛋白 (UniProt P20273); assay: ELISA, purified antibody at dilution 25K on coated CD22 protein (1 μg/ml)
CD22 FC融合标签蛋白 [2] = molecular target: CD22 FC融合标签蛋白 (UniProt P20273); assay: ELISA, purified antibody at dilution 3125k on coated CD22 protein (1 μg/ml)
CD22 FC融合标签蛋白 [3] = molecular target: CD22 FC融合标签蛋白 (UniProt P20273); assay: ELISA, purified antibody at dilution 15625k on coated CD22 protein (1 μg/ml)
CD22 FC融合标签蛋白 [4] = molecular target: CD22 FC融合标签蛋白 (UniProt P20273); assay: indirect ELISA, B cell clone supernatant on coated CD22 protein (1 μg/ml)
CD22 FC融合标签蛋白 [5] = molecular target: CD22 FC融合标签蛋白 (UniProt P20273); assay: ELISA, purified antibody at dilution 625K on coated CD22 protein (1 μg/ml)
CD22 FC融合标签蛋白 [6] = molecular target: CD22 FC融合标签蛋白 (UniProt P20273); assay: ELISA, purified antibody at dilution 125K on coated CD22 protein (1 μg/ml)
CD22 FC融合标签蛋白 [7] = molecular target: CD22 FC融合标签蛋白 (UniProt P20273); assay: ELISA, purified antibody at dilution 1K on coated CD22 protein (1 μg/ml)

| Binder | binding result (CD22 on Raji细胞) | ELISA reading (OD) at dilution 25K (CD22 FC融合标签蛋白 [1]) | ELISA reading (OD) at dilution 3125k (CD22 FC融合标签蛋白 [2]) | ELISA reading (OD) at dilution 15625k (CD22 FC融合标签蛋白 [3]) | OD450 (CD22 FC融合标签蛋白 [4]) | ELISA reading (OD) at dilution 625K (CD22 FC融合标签蛋白 [5]) | ELISA reading (OD) at dilution 125K (CD22 FC融合标签蛋白 [6]) | ELISA reading (OD) at dilution 1K (CD22 FC融合标签蛋白 [7]) |
| --- | --- | --- | --- | --- | --- | --- | --- | --- |
| B1 | binds | 3.52 | 0.203 | 0.146 | 1.93 | 0.528 | 1.92 |  |
| B2 | binds | 3.1 | 0.18 | 0.12 | 2.12 | 0.382 | 1.33 | 3.95 |
| B3 | binds | 3.37 | 0.171 | 0.125 | 1.86 | 0.405 | 1.39 |  |

— CN115433280A (SUZHOU DIMA BIOTECHNOLOGY CO LTD, dated 2022)
